Molecular target: RecU protein from Mycoplasma genitalium (RecUMge) (Mycoplasma genitalium) (UniProt Q49422)

Q: “RuvA homologue from Mycoplasma genitalium (RuvAMge), H10-tagged (from UniProt Q49424 1-205) (natural protein)” was tested. Which HJ resolution activity of RecUMge (0.2 uM) on HJ 1.1 preincubated with RecUMge before RuvAMge (0 to 4 uM) was added; percent inhibition (≥20% only at ≥250 nM) did it give?
A: Its HJ resolution activity of RecUMge (0.2 uM) on HJ 1.1 preincubated with RecUMge before RuvAMge (0 to 4 uM) was added; percent inhibition (≥20% only at ≥250 nM) is over 80%.

Q: And the HJ resolution activity of RecUMge (0.2 uM) on HJ 1.1 preincubated with RuvAMge (0 to 4 uM) before RecUMge was added; percent reduction of activity (about 20% at 60 nM, highest at 1 uM or more)?
A: Its HJ resolution activity of RecUMge (0.2 uM) on HJ 1.1 preincubated with RuvAMge (0 to 4 uM) before RecUMge was added; percent reduction of activity (about 20% at 60 nM, highest at 1 uM or more) is over 80%.

Source: paper PMC3364216
